Source: paper PMC6018636, “Mutually exclusive acetylation and ubiquitylation of the splicing factor SRSF5 control tumor growth” (Nature Communications, 2018)

Biological target: T1, His-Smurf1 (UniProt Q9HCE7-2 1-731)
T1 construct: Smurf1, inserted into pET-28a; also called His-tagged Smurf1; source: Escherichia coli BL21, purified
Experiment: pull-down; bacteria-expressed GST-tagged protein immobilised on glutathione-Sepharose 4B beads, incubated with His-tagged protein for 8 h at 4 °C; washed with GST-binding buffer (100 mM NaCl, 50 mM NaF, 2 mM EDTA, 1% NP-40); immunoblotting
Conditions: both partners purified

T1 sequence (Q9HCE7 other isoform, or with tags, fused parts or gaps): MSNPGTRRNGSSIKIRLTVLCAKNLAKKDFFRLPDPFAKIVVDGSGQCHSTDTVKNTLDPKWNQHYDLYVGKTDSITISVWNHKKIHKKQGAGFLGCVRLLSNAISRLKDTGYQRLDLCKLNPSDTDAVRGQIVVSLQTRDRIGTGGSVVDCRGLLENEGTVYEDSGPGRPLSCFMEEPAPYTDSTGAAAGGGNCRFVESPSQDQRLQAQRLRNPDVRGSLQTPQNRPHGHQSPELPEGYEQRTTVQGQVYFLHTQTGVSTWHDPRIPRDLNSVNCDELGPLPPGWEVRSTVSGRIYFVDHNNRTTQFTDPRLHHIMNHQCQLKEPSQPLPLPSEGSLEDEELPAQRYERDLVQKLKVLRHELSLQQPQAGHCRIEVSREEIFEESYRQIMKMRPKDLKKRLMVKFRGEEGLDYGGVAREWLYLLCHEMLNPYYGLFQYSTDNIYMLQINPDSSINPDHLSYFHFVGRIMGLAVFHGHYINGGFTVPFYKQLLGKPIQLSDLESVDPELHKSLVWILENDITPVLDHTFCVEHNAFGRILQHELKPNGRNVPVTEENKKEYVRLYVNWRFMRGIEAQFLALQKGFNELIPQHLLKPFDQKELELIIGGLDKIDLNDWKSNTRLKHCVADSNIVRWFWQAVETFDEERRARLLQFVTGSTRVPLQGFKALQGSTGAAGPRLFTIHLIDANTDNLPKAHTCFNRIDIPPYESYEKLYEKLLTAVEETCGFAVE

binding result: binds
B1: GST-SRSF5 (natural protein, UniProt Q13243 1-272, looked up)
chain: MSGCRVFIGRLNPAAREKDVERFFKGYGRIRDIDLKRGFGFVEFEDPRDADDAVYELDGKELCSERVTIEHARARSRGGRGRGRYSDRFSSRRPRNDRRNAPPVRTENRLIVENLSSRVSWQDLKDFMRQAGEVTFADAHRPKLNEGVVEFASYGDLKNAIEKLSGKEINGRKIKLIEGSKRHSRSRSRSRSRTRSSSRSRSRSRSRSRKSYSRSRSRSRSRSRSKSRSVSRSPVPEKSQKRGSSSRSKSPASVDRQRSRSRSRSRSVDSGN
notes: splicing factor SRSF5, inserted into pGEX-6P-1; also called GST–SRSF5 fusion protein; source: Escherichia coli BL21, purified; immobilised on glutathione-Sepharose 4B beads
